Literature values, collected in PMC12720343.

Biological target: SpoIIQ extracytoplasmic fragment (Bacillus subtilis) (UniProt P71044)
Chain of UniProt P71044 (P71044 43-283): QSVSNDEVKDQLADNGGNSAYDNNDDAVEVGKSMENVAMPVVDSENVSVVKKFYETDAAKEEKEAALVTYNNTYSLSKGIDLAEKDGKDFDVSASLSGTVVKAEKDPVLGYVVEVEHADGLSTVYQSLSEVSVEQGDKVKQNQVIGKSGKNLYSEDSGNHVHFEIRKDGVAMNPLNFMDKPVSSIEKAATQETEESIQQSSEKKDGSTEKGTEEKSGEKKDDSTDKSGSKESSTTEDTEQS

Kd: 1000 nM
Substance: SpoIIIAH extracytoplasmic fragment (from UniProt P49785)
